According to the supplement of paper PMC10567573:

B1: SLC19A2 (parent)
chain: IYPVWTYSYLVLLFPVFLATDYLR
B2: PTPRD (parent)
chain: LTKLREMGREKCHQYWPAERSARY

Variants of: B1
Test: protein stability index of a GFP-peptide fusion (GPS, HEK-293T) (PSI 1-6); higher = more stable
Details: c terminus: a fixed tail appended
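Further: lentivirally expressed fusions sorted by FACS into six bins by GFP to DsRed ratio, PSI derived from sequencing read proportions per bin multiplied by bin number.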

Protein stability index of substitutions, site by site:
L12: W 3.3, Y 2.31
L23: G 3.42, M 3.02, D 2.96, T 2.48, V 2.32, Q 2.54, H 2.11, I 2.61, N 1.46, S 2.62, E 2.68, K 2.22, W 3.21, R 3.03, A 3.57
L18: C 3.04, H 3.99, A 2.5, K 2.51, I 3.03, F 2.3, M 3.69, Q 2.84, E 3.06, D 2.81, Y 2.32, R 4.66, G 3.7, T 2.54, P 3.1, S 3.42, N 2.84
F17: W 2.19, E 3.22, P 4.41, K 3.78, Y 2.43, R 2.95, M 3.21, G 2.81, H 3.74, N 3.6, C 2.97, D 2.99, S 2.64, T 2.95, A 3.59
D21: H 3.39, K 2.46, P 2.63, C 2.36, V 2.38, A 3.19, S 2.09, R 2.67, N 2.65, T 2.75, E 3.77, Y 3.42, W 2.24, G 2.73, F 2.61
R24: C 1.84, K 3.31, I 3.43, P 1.99, F 3.56, W 3.24, D 2.64, H 2.63, Y 2.75, G 2.58, E 1.91, T 1.69, A 2.61, Q 3.46, N 4.07, L 2.41, S 3.04, M 2.99
T20: Y 1.95, A 2.94, E 1.62, Q 3.01, S 2.33, W 1.93, F 2.44, I 4.41, C 2.53, L 4.02, P 3.55
P15: S 2.5, G 1.93, Y 1.06, E 3.03, F 2.95, M 3.22, C 3.79, H 2.75, A 3.53, W 3.27, Q 3.38, N 2.11, R 2.7, L 2.41
V16: K 1.95, I 3.52, F 3.04, Y 2.34, Q 3.85, H 4.12, D 4.04, E 1.72, P 2.42, A 3.1, L 2.41, R 3.91, C 2.79, S 3.4, T 2.15, N 2.79, M 2.55
Y22: F 3.76, V 2.6, D 2.55, S 3.06, W 2.78, P 3.49, R 1.75, G 1.66, T 2.68, Q 1.98, K 4.23, E 2.71
A19: H 2.48, W 3.92, Y 3.37, I 2.47, Q 2.78, K 1.69, M 2.59, P 4.21, T 1.57, G 2.6, D 2.38, V 3.34, F 3.11, N 3.19, S 2.5, L 3.29
L13: F 2.64, Q 4.28, C 2.38, V 3.06, E 2.6, I 2.53, D 3.57, A 3.41, G 1.19, P 1.48, Y 2.87, S 2.34, M 3.06, W 3.58, N 2.64, T 1.87
F14: R 3.83, K 1.99, W 2.47, G 3.54, C 2.63, P 2.48, L 3.35, I 3.07, Y 2.88, V 2.97, T 3.75, Q 2.98, E 2.74, A 2.08, M 4.1, H 3.32

Variants of: B2
Test: as above
Details: c terminus: a fixed tail appended

Protein stability index: each site, then its substitutions
K3: P 2.66, Q 2.33, V 1.92, T 2.63, G 2.64, N 3.09, E 3.3, C 2.34, A 2.7, H 2.41, S 2.73, M 2.41, W 1.88, R 2.43, F 2.4, I 2.08, D 2.9, Y 2.44, L 2.21
M7: T 2.71, N 2.77, Q 2.56, E 3.25, F 2.41, A 2.57, I 2.54, S 2.55, V 2.56, L 1.9, K 2.98, Y 2.7, H 2.75, D 3.14, P 2.67, C 2.23, R 2.35, G 2.64, W 1.67
E6: T 2.52, G 2.23, C 1.75, Y 1.7, R 2.38, P 2.33, Q 2.1, L 2.13, A 2.41, F 2.45, W 1.82, H 2.09, D 2.66, N 1.8, M 2.18, S 1.98, K 1.95, V 1.73, I 1.9
L1: V 2.39, Y 2.21, Q 2.87, F 1.97, R 2.47, I 2.26, K 3.36, S 2.59, A 2.88, H 2.87, D 3.59, E 3.12, P 2.66, W 2.43, N 3.1, M 2.95, G 2.47, C 2.42, T 2.86
R5: A 2.53, Y 2.23, W 2.24, N 2.76, H 2.58, D 3.32, G 3.18, T 2.38, E 3.16, Q 2.91, V 2.18, C 2.62, S 3.17, M 2.39, F 2.21, I 2.44, P 2.75, K 2.29, L 2.4
L4: R 2.92, Y 2.63, N 3.04, I 2.58, F 2.63, V 2.48, S 2.99, E 3.55, K 2.8, G 3.55, T 2.77, D 3.29, Q 3.1, M 2.65, H 2.84, C 2.12, W 2.12, P 2.88, A 2.72
G8: F 1.73, S 1.94, K 2.04, E 2.65, I 1.29, L 1.67, A 2.02, N 2.29, M 2.07, R 2.53, D 3.22, H 1.93, P 2.44, T 2.95, V 2.58, C 2.39, Q 3.13
T2: D 2.83, V 1.99, W 1.78, Y 1.97, P 2.53, M 2.29, K 2.92, N 2.29, E 3.03, H 2.25, A 2.69, C 1.82, Q 2.95, G 2.77, S 2.16, L 2.15, F 1.96, R 2.3, I 2.22
